Measured values from article doi:10.1101/251942.

Target: Brucella adipic acid activated regulator (BaaR), residues 21-284 (Brucella abortus)
Assay: crystal structure

## Brucella adipic acid activated regulator (BaaR), residues 21-284 (domain or fragment)
  stoichiometry N: 2
